Data from publication PMC10808114, “Yeast 26S proteasome nuclear import is coupled to nucleus-specific degradation of the karyopherin adaptor protein Sts1” (Scientific Reports, 2024).

T1: GST-cleaved Kap95 (S. cerevisiae, UniProt Q06142 1-861)
T1 construct: Kap95 (karyopherin-beta), S. cerevisiae; also called purified Kap95; untagged Kap95; source: recombinant, purified, GST cleaved
T1 sequence (looked up): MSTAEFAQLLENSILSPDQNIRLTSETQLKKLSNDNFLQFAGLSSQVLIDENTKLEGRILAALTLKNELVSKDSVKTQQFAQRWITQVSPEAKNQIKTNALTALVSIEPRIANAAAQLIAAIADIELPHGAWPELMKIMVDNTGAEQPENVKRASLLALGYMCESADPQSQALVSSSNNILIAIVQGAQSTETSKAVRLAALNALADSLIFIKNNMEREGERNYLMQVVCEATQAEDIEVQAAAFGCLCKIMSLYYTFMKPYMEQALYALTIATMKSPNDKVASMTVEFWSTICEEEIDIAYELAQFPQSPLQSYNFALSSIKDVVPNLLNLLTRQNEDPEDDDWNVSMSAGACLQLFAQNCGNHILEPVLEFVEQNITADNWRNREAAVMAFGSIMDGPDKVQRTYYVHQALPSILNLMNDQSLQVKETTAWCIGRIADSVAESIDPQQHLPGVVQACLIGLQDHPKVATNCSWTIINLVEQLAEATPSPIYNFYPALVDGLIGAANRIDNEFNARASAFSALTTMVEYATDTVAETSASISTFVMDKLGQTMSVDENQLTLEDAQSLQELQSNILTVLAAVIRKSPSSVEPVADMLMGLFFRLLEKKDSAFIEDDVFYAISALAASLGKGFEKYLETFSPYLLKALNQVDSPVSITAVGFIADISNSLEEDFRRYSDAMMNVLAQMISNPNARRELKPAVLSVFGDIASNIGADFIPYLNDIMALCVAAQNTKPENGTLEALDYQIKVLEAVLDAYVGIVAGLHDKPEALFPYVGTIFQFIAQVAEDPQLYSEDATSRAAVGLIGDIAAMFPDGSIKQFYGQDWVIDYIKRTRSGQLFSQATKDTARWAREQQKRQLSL

B1: full-length GST-Sts1 (natural protein, S. cerevisiae, UniProt P38637 1-319, looked up)
chain: MMGFEWGFKPSSKITQSTVSSQGTGNVMIPTAGVKQKRRYANEEQEEEELPRNKNVMKYGGVSKRRPQPGSLIRGQPLPLQRGMELMNKNQLQQLLVDLMTKHPEIQQSVHTRVIGLDFSIQKCLDMLKQKSEAVYQSIPYNRSYESNKLDDYAFVRMKPQILEFLNCLVDFILDNIPPRLENLHASLKFLDICTELVIKLPRFELASNNYYYDKCIEQLSHVWCTLIEHVARDRIILLADNSSVWKSHMTRLQVYNEHSNGLLERPLQLFKSLDMGSPSAASSSTLSLQESIIYHHDTMTANENNNNSGSAATDSPFN
notes: Sts1, S. cerevisiae, full length; also called FL; not shown: GST, N-terminal, kept
B2: Srp1-6His (natural protein, S. cerevisiae, UniProt Q02821 1-542, looked up)
chain: MDNGTDSSTSKFVPEYRRTNFKNKGRFSADELRRRRDTQQVELRKAKRDEALAKRRNFIPPTDGADSDEEDESSVSADQQFYSQLQQELPQMTQQLNSDDMQEQLSATVKFRQILSREHRPPIDVVIQAGVVPRLVEFMRENQPEMLQLEAAWALTNIASGTSAQTKVVVDADAVPLFIQLLYTGSVEVKEQAIWALGNVAGDSTDYRDYVLQCNAMEPILGLFNSNKPSLIRTATWTLSNLCRGKKPQPDWSVVSQALPTLAKLIYSMDTETLVDACWAISYLSDGPQEAIQAVIDVRIPKRLVELLSHESTLVQTPALRAVGNIVTGNDLQTQVVINAGVLPALRLLLSSPKENIKKEACWTISNITAGNTEQIQAVIDANLIPPLVKLLEVAEYKTKKEACWAISNASSGGLQRPDIIRYLVSQGCIKPLCDLLEIADNRIIEVTLDALENILKMGEADKEARGLNINENADFIEKAGGMEKIFNCQQNENDKIYEKAYKIIETYFGEEEDAVDETMAPQNAGNTFGFGSNVNQQFNFN
notes: Srp1 (Kap60, karyopherin-alpha), S. cerevisiae; pET42b-based plasmid; also called karyopherin-α; Kap60; source: also co-expressed with GST-Sts1 in E. coli extract; not shown: 6His, C-terminal, kept

What was measured:
Srp1-6His = biological target: B2; experiment: pull-down; GST-Sts1 immobilised on GSH beads, incubated with equimolar Srp1-6His and GST-cleaved Kap95, 4 °C, 2 h; PBS, 0.1% Tween-20, 0.2 mM DTT, 0.2 mM PMSF; without Ran or then with four-fold molar excess of 6His-Gsp1GDP (complex largely intact); SDS-PAGE and protein staining; settings: both partners purified
GST-cleaved Kap95 = biological target: T1, GST-cleaved Kap95; experiment: as above; settings: both partners purified

| Binder | binding result (Srp1-6His) | binding result (GST-cleaved Kap95) |
| --- | --- | --- |
| B1 | binds | binds |
| B2 |  | binds |
